Measured values reported in patent US20060253917A1 (published 2006).

Key:
OsMADS8 aa 127-248 = target: T1, OsMADS8 aa 127-248 (Oryza sativa, UniProt Q9SAR1 127-248); test: Y2H; output trait library
T1 construct: prey, AD fusion; also called PN20778
T1 sequence: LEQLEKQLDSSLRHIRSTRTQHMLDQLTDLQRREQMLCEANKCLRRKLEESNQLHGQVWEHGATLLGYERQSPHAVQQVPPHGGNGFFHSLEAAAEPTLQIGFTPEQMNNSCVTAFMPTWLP
How it was run: (§1)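 Protein-protein interactions were detected with an automated, high-throughput yeast two-hybrid assay provided by Myriad Genetics Inc. (Salt Lake City, Utah). A bait clone encoding a defined amino-acid fragment of a rice protein was screened against a rice prey library, either the input trait or the output trait library. Prey clones were retrieved, and their encoding sequences were compared by BLAST against databases to identify the interacting proteins.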

OsFDRMADS6 aa 100-246 = target: T2, OsFDRMADS6 aa 100-246 (Oryza sativa, UniProt P0C5B1 100-246); test: Y2H; output trait library
T2 construct: prey, AD fusion; also called PN19766
T2 sequence: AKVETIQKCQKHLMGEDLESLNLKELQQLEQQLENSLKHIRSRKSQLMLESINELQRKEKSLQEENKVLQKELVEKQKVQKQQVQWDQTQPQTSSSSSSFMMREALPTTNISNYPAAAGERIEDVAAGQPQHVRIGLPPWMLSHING
How it was run: as §1

OsFDRMADS8 aa 94-230 = target: T3, OsFDRMADS8 aa 94-230 (Oryza sativa, UniProt A2Z9Q7 94-230); test: Y2H; output trait library
T3 construct: prey, AD fusion; also called PN20698
T3 sequence: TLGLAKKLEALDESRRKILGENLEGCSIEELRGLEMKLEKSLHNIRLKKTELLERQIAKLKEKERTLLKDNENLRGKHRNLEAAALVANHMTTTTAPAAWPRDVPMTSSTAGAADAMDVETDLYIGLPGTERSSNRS
How it was run: as §1

OsMADS1 aa 95-257 = target: T4, OsMADS1 aa 95-257 (Oryza sativa, UniProt A2XDY1 95-257); test: Y2H; input trait library
T4 construct: prey, AD fusion; also called PN19788
T4 sequence: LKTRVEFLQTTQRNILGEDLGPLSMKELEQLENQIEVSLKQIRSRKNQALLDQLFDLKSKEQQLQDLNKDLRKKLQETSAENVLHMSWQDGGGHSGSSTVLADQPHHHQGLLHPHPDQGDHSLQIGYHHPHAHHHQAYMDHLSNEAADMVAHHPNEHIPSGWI
How it was run: as §1

OsFDRMADS8 aa 69-233 = target: T5, OsFDRMADS8 aa 69-233 (Oryza sativa, UniProt A2Z9Q7 69-233); test: Y2H; input trait library
T5 construct: prey, AD fusion; also called PN20698
T5 sequence: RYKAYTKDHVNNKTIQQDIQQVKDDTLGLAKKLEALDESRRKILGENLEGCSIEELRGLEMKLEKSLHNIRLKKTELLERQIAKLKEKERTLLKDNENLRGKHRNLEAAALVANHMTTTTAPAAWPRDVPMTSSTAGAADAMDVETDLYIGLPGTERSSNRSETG
How it was run: as §1

OsMADS1 aa 74-172 = target: T6, OsMADS1 aa 74-172 (Oryza sativa, UniProt A2XDY1 74-172); test: Y2H; input trait library
T6 construct: prey, AD fusion; also called PN19788
T6 sequence: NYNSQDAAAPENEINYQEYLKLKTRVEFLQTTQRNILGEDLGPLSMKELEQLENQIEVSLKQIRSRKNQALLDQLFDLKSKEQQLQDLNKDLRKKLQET
How it was run: as §1

Measured: binding result

B1: OsRAP1B aa 100-247 (other)
chain: AKVETIQKCQKHLMGEDLESLNLKELQQLEQQLENSLKHIRSRKSQLMLESINELQRKEKSLQEENKVLQKELVEKQKVQKQQLQWDQTQPQTISSSSSFMMREALPTTNISNYPAAAGERIEDVPAGQPQHVRIGLPPWMLSHING
notes: bait, Gal4 DBD fusion; also called PN20232
not listed: OsMADS1 aa 74-172
binds: all other assays above

B2: OsRAP1B aa 65-200 (other)
chain: KILERYERYSYAEKVLISAESDTQGNWCHEYRKLKAKVETIQKCQKHLMGEDLESLNLKELQQLEQQLENSLKHIRSRKSQLMLESINELQRKEKSLQEENKVLQKELVEKQKVQKQQLQWDQTQPQTISSSSSFM
notes: as for B1
binds: OsMADS1 aa 74-172
